Reference: publication PMC3578163 (Chemical research in toxicology, 2013)
Like-named read-outs stand apart in the source and are kept apart here.

Tests used:
Test in all cases: fluorescence polarization
[1] = biological target: T1, DNA polymerase iota catalytic core (hpol ι26-446) (Homo sapiens, UniProt Q9UNA4 26-446)
T1 sequence: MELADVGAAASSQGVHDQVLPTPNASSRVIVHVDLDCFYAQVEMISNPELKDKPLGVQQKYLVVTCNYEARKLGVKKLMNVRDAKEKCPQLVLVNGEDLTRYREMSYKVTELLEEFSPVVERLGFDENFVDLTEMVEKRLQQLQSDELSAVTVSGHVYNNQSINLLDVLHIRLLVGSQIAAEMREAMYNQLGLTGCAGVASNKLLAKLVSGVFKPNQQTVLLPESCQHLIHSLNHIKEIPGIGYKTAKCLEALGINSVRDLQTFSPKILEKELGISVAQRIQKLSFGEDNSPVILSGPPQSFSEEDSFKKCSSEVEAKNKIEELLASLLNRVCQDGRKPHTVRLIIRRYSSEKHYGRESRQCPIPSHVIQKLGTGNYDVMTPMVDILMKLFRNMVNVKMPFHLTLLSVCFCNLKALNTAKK

[2] = biological target: T2, DNA polymerase kappa catalytic core (hpol κ19-526) (Homo sapiens, UniProt Q9UBT6 19-526)
T2 sequence: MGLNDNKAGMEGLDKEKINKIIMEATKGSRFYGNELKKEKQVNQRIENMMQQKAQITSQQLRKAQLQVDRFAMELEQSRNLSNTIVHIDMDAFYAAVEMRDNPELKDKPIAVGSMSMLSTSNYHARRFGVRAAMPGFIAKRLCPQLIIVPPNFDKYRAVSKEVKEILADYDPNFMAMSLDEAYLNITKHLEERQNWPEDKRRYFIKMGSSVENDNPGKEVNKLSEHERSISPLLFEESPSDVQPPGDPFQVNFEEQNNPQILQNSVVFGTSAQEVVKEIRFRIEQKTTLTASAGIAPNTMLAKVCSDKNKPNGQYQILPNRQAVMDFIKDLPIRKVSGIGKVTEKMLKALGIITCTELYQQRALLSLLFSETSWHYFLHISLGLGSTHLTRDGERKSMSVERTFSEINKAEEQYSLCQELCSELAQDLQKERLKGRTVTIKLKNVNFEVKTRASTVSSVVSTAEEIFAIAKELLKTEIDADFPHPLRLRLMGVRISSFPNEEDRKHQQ

[3] = biological target: T1, DNA polymerase iota catalytic core …; remark: listed apart in the source
[4] = biological target: T2, DNA polymerase kappa catalytic core …; remark: listed apart in the source
[5] = biological target: T1, DNA polymerase iota catalytic core …; remark: listed apart in the source
[6] = biological target: T1, DNA polymerase iota catalytic core …; remark: listed apart in the source
[7] = biological target: T1, DNA polymerase iota catalytic core …; remark: listed apart in the source
[8] = biological target: T2, DNA polymerase kappa catalytic core …; remark: listed apart in the source

B1: FAM-13/18mer primer-template DNA (dsDNA)
DNA 1: TTTGGGGGAAGGATTC
DNA 2: TCACGGAATCCTTCCCCC
Kd [1]: 5.5 ± 0.7 nM | Kd [2]: 13.7 ± 5.1 nM | Kd [3]: 6.3 ± 0.9 nM | Kd [4]: 19 ± 5.6 nM | Kd [5]: 8.8 ± 1.3 nM | Kd [6]: 9.1 ± 1.6 nM | Kd [7]: 5.3 ± 0.7 nM | Kd [8]: 11.1 ± 5.1 nM
